According to patent US20230041071A1 (NATIONAL INSTITUTE OF BIOLOGICAL SCIENCES BEIJING, published 2023):
Substitutions are numbered along the chain they refer to. Where no end group is shown, it is not given here.

Tests used:
[1] = target: T1, hAREG-H164N variant (human, UniProt P15514 142-184); experiment: SPR (Biacore T200)
T1 construct: also called H164N variant of hAREG-EGFd
T1 chain: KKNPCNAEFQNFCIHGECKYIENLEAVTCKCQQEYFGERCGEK

[2] = target: T2, hAREG-E149K variant (human, UniProt P15514 142-184); experiment: SPR (Biacore T200)
T2 construct: also called E149K variant of hAREG-EGFd
T2 chain: T1 chain with E8K, N23H

[3] = target: T3, hAREG-EGFd-mFc (human; mouse, UniProt P15514 142-184); experiment: SPR, Biacore T200; mAb captured on anti-human Fc chip, antigen in solution
T3 construct: Expressed in 293F cells; not shown: Fc fragment of mouse IgG2a
T3 chain: T1 chain with N23H
Method: (§1) To evaluate affinities of different mouse hybridoma mAbs or their humanized and engineered variants, SPR measurement was performed using Biacore T200 instrument. mAbs were captured on anti-human Fc CM5 biosensor chip surface, hAREG-EGFd-mFc, mAREG-EGFd-mFc or hAREG-98aa (purchased from PeproTech, cat #100-55B) in serial dilutions were injected over antibody-bound surface, followed by a dissociation phase. Association rates (Ka) and dissociation rates (Kd) were calculated using the one-to-one Langmuir binding model (BIA Evaluation Software, GE Life Sciences). The equilibrium dissociation constant (KD) was calculated as the ratio kd/ka.

[4] = target: T4, mAREG-EGFd-mFc (mouse, UniProt P31955 135-177); experiment: as above
T4 construct: also called EGF domain of mAREG (aa135-177) fused with mFc tag; not shown: mFc tag (Fc fragment of mouse IgG2a as for hAREG-EGFd-mFc)
T4 chain: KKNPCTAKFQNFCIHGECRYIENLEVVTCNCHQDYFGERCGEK
Method: as §1

[5] = target: T5, hAREG-98aa (human, UniProt P15514 101-198); experiment: as above
T5 construct: Bought protein
T5 sequence (looked up): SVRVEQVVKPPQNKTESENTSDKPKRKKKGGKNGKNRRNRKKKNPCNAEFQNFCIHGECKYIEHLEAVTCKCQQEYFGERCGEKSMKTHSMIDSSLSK
Method: as §1

[6] = target: T6, mAREG-EGFd-DLLA-mFc (mouse, UniProt P31955 135-177, limits assumed); experiment: competition ELISA; antibody titrated against 50 nM mAREG-DLLA on captured mEGFR-ECD
T6 construct: Expressed in 293F cells; also called mAREG-DLLA
T6 chain: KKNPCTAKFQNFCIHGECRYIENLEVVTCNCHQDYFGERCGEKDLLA
Method: Briefly, streptavidin (Sigma, 5 μg/mL) were coated in U-bottom 96-well plates, 100 nM biotinylated hEGFR-ECD or mEGFR-ECD in 100 μL per well were then captured onto the plates. Different antibodies at serial diluted concentrations were mixed with 5 nM hAREG-DLLA or 50 nM mAREG-DLLA protein and added to the ELISA plate. The binding of hAREG-DLLA to hEGFR-ECD or the binding of mAREG-DLLA to mEGFR-ECD was detected by HRP-conjugated mouse anti-mouse IgG Fc antibody (Thermo Fisher).
To facilitate the competition ELISA assay, we used the hAREG-EGFd-DLLA-mFc (hAREG-DLLA) or mAREG-EGFd-DLLA-mFc (mAREG-DLLA) as the ligands for binding to EGFR in the assay.

[7] = target: T7, hAREG: human AREG comprising residues 101-184 of the human pro-AREG with an N-terminal AVI tag (human, biotinylated using BirA enzyme (Avi tag)); experiment: ELISA, biotinylated hAREG captured on streptavidin-coated plate, bound IgG detected with HRP anti-Fc antibody
T7 construct: Expressed in E. coli with His6-TRX-3C site-Avi tags and cleaved by HRV 3C protease; also called biotinylated hAREG
T7 chain: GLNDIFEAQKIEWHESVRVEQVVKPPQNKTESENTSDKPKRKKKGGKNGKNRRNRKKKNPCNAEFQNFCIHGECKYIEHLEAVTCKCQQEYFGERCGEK
Method: (§2) Streptavidin (Sigma, […]) in phosphate buffered saline (PBS) was coated in U-bottom 96-well plate (Nunc, MaxiSorp™), 100 μL per well, at 4° C. overnight or 37° C. for 1 hour.
(§3) About […] of AREG protein or peptide at 100 μL per well were then captured onto the plates by incubation at 30° C. for 1 hour. For phage-scFv based ELISA, serial diluted phage-scFvs in PBS containing 2% nonfat milk were added to each well at 100 μL per well. Specific bound phage-scFvs were detected by adding HRP-conjugated mouse anti-M13 antibody (GE Healthcare) and incubated for 30 mins at 30° C. In between each incubation step, the ELISA plate was washed for 6 times with PBST solution (0.05% Tween20 containing PBS) at 300 µL per well. Followed by HRP-conjugated antibody incubation, the ELISA signal was developed by incubating with TMB substrate (Sigma) for 5-10 mins at 30° C. and then the reaction was stopped with 2M H₂SO₄ at 50 µL per well. The absorbance at 450 nm with the correction wavelength set at 630 nm was read by a microplate reader (Bio-Rad). For IgG based ELISA, the method was basically the same as described above for phage-scFvs except the bound antibodies were detected by HRP-conjugated mouse anti-Fc secondary antibody (Thermo Fisher Scientific).

[8] = target: T8, mAREG: mouse AREG comprising residues 94-177 of the mouse pro-AREG with an N-terminal AVI tag (mouse, biotinylated using BirA enzyme (Avi tag)); experiment: ELISA, biotinylated mAREG captured on streptavidin-coated plate, bound IgG detected with HRP anti-Fc antibody
T8 construct: Expressed in E. coli, cleaved by HRV 3C protease, biotinylated; also called biotinylated mAREG
T8 chain: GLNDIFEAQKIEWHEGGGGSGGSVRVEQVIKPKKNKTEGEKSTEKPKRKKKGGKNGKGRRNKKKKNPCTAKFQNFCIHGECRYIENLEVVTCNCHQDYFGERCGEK
Method: as §2, §3

[9] = target: T9, C18 peptide (human, cysteine pairing not given here; also: biotinylated, position not given here); experiment: ELISA, biotinylated C18 peptide captured on streptavidin-coated plate, bound IgG detected with HRP anti-Fc antibody
T9 construct: Synthetic (Scilight-peptide); also called hAREG-C18; C-terminal peptide
T9 peptide: GSSGKCQQEYFGERCGEK
Method: as §2, §3

[10] = target: T7, hAREG: human AREG comprising residues …; experiment: hybridoma screening by ELISA on biotinylated hAREG and SPR
Method: The supernatant of hybridoma clones were examined for binding activity to biotinylated hAREG by ELISA. Clones with high binding activity were selected and expanded for subsequent subcloning, and the supernatant of the subclones were analyzed by ELISA and SPR. The SPR analysis was performed using Biacore T200 instrument (GE Life Sciences). Diluted supernatant was captured on anti-mFc CM5 biosensor chip, then 200 nM of hAREG EGF domain-hFc flowed in mobile phase. Subclones with high affinity was expanded for RNA extraction. Cells were resuspended in TRIzol (Life Technologies), and total RNA was extracted following the instruction manual. The cDNA of subclones was synthesized using PrimeScript™ RT Master Mix (TaKaRa). The VH and VL genes of each antibody were amplified using a set of PCR primers specific to mouse antibody variable genes. PCR products were cloned into a PCR sequencing vector for sequencing.

[11] = target: T7, hAREG: human AREG comprising residues …; experiment: ELISA screening after phage library selection
[12] = target: T8, mAREG: mouse AREG comprising residues …; experiment: ELISA screening after phage library selection
[13] = target: T10, biotinylated mAREG-EGFd (expressed in E. coli) (mouse, UniProt P31955 135-177, limits assumed, biotinylated); experiment: phage antibody library selection and ELISA screening
T10 construct: domain: EGFd; E. coli-expressed biotinylated form used for the library selection; not the mFc fusion m33
T10 chain (looked up): T4 chain
Method: (§4) Phage particles expressing scFv on their surface (phage-ScFv) were prepared from the library and used for selection of scFvs against the target antigens including the biotinylated AREG proteins and peptides. The antigens were captured on streptavidin-conjugated magnetic M-280 Dynabeads® (Life Technologies) and then incubated with 5×10¹² phage particles prepared from the library, respectively. For each soluble AREG protein or peptide (antigen, Ab), two rounds of selection were performed. For obtaining cross-reactive human mAbs recognizing both hAREG and mAREG, the hAREG and mAREG were used respectively in the 1st and 2nd rounds of selection. […] Some of the phage-Abs were subsequently converted into human IgG1 (hIgG1) or mouse IgG2a format and analyzed for binding to both hAREG and mAREG using enzyme-linked immunosorbent assay (ELISA) or Biacore.
(§5) About […] of AREG protein or peptide at 100 μL per well were then captured onto the plates by incubation at 30° C. for 1 hour. […] Specific bound phage-scFvs were detected by adding HRP-conjugated mouse anti-M13 antibody (GE Healthcare) and incubated for 30 mins at 30° C. […] The absorbance at 450 nm with the correction wavelength set at 630 nm was read by a microplate reader (Bio-Rad). […]

[14] = target: T9, C18 peptide; experiment: phage antibody library selection on the C18 peptide and ELISA screening
Method: as §4, §5

B1: hu9C12v4 (antibody, V domains shown)
VH: EVQLVESGGGLVKPGGSLRLSCAASGFTFSSYPMSWVRQAPEKGLEWVSTISTGGRYTYYPDSVKGRFTISRDNAKNSLYLQMNSLRAEDTAVYYCARQGPIYYGNYYYAMDYWGQGTTVTVSS
VL: DIVMTQSPLSLPVTLGDPASISCRSSQSLVDGEDGTYLNWFQQRPGQSPKLLIYKVSERFDGVPDRFSGSGSGTDFTLKISRVEAEDVGVYYCSQSTHVPYTFGGGTKVEIK
notes: Humanized 9C12 variant
In the case of B1, the binding result [1] is reported as “no binding”, the binding result [2] is reported as “binds” and the Kd [3] is reported as 1040 pM. It also gave a koff [3] of 0.00077 s⁻¹, a kon [3] of 745000 M⁻¹ s⁻¹ and a Kd [4] of 9010 pM. The Kd [5] was 462 pM, the koff [5] was 0.00372 s⁻¹ and the kon [5] was 8.04e+06 M⁻¹ s⁻¹. B1: binds [6].

B2: P7 (antibody, V domains shown)
VH: EVQLVQSGGGVVQPGRSLRLSCAASGFIFSSHAMSWVRQAPGKGLEWVSAISGSGGSTYYADSVKGRFTISRDNSKNTLYLQMNSLRAEDTAVYYCAKVDTKFDPWGQGTLVTVSS
VL: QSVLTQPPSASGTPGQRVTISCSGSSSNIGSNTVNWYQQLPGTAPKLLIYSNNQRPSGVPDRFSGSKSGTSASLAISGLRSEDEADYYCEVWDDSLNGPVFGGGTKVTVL
notes: Human mAb from a phage scFv library, selected on the C18 peptide; Human IgG1 or mouse IgG2a format
For B2, the binding result [6] was “binds”, the “EC50 (read off the curve)” value [7] was about 80 pM and the “EC50 (read off the curve)” value [8] was about 900 pM. For the same binder, the “EC50 (read off the curve)” value [9] was about 60 pM.

B3: E1H3L4 (antibody, V domains shown)
VH: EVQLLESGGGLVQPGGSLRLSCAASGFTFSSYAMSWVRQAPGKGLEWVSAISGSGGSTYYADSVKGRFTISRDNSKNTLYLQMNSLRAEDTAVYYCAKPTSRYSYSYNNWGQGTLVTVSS
VL: QAVLTQPPSASGTPGQRVTISCTGNSNNVGDQGAVWYQQLPGTAPKLLIYRNNNRPSGVPDRFSGSKSGTSASLAISGLQSEDEADYYCSTWDKNNKSVVFGGGTKLTVL
notes: Human IgG1 or mouse IgG2a format
With B3 the binding result [6] was “binds”, the “EC50 (read off the curve)” value [7] was about 60 pM and the “EC50 (read off the curve)” value [8] was about 500 pM. For the same binder, the “EC50 (read off the curve)” value [9] was about 200 pM.

B4: 23H8 (antibody, V domains shown)
VH: EVQLQESGGGLVKPGGSLKLSCAASGFTFNSYAMSWVRQTPEKRLEWVATISTGGSHTYYPDSVKGRFTISRDNAKNTLYLQMSSLRSEDTAMYYCARHGYLLYDGYYEWYFDVWGAGTTVTVSS
VL: DIVLTQSPASLAVSLGQRATISCKASQSVDYDGHSFLNWYQQKPGQPPKLLIYAASNLESGLPARFSGSGSGTDFTLNIHPVEEEDAATYYCQQSTEDPPYTFGGGTKLEIK
notes: Mouse hybridoma mAb; made recombinantly as mIgG1, mIgG2a or chimeric human IgG1; also called m23H8
B4: binds [10].

B5: 9C12 (antibody, V domains shown)
VH: EVKLVESGGGLVKPGGSLKLSCAASGFTFSSYPMSWVRQTPEKRLEWVATISTGGTYTYYPDSVKGRFTISRDNAKNTLYLQMSSLRSEDTAMYYCARQGPIYYGNYYYAMDYWGQGTSVTVSS
VL: DIVMTQPPLSLPVSLGDQASISCRSSQSLVHSDGNTYLHWYLQRPGQSPKLLIYKVSNRFSGVPDRFSGSGSGTDFTLKISRVEAEDLGVYFCSQSTHVPYTFGGGTKLEIK
notes: Mouse hybridoma mAb; made recombinantly as mIgG1, mIgG2a or chimeric human IgG1; also called m9C12
B5: binds [10].

B6: E1L2 (antibody, V domains shown)
VH: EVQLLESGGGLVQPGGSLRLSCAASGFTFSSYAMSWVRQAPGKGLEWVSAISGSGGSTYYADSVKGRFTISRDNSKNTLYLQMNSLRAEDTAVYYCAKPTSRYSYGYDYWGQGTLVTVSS
VL: QAGLTQPPSVSKGLRQTATLTCTGNSNNVGDQGAVWLQQHQGHPPRLLSYRNNNRPSGISERFSASRSGNTASLTITGLQPEDEADYYCSTWDSGLNSVVFGGGTQLTVL
notes: Human mAb from a phage scFv library; Phage-Abs were converted into human IgG1 or mouse IgG2a format
B6: binds [11]; binds [12]; binds [13]. B6: binds [14].
